Assay results reported in PMC9231368, “Production of GMP-Compliant Clinical Amounts of Copper-61 Radiopharmaceuticals from Liquid Targets” (Pharmaceuticals, 2022).
Positions of bridges follow the written chain, without caps; N, C: chain ends. Non-standard residues stand in square brackets, D forms with d. Residues, ends and D or L forms follow the SMILES beside them. *: point of attachment. DOTA = O=C(O)CN1CCN(CC(=O)O)CCN(CC(=O)*)CCN(CC(=O)O)CC1; 1Nal = N[C@@H](Cc1cccc2ccccc12)C(=O)O; Thr(ol) = C[C@@H](O)[C@H](N)CO

Assay: Radiolysis during labelling reaction, with and without EtOH as radiolytic scavenger
Format: physicochemical
Conditions: final product vial, radio-HPLC, single test
Description: The considerably high percentage of radiolysis in the final product vial (FPV), caused by the presence of free radicals in solution (e.g., superoxide or hydroxyl radicals), impaired the establishment of the most favourable labelling conditions. Although not explicitly measured, for higher activity concentrations, the radiolysis percentage was anticipated to increase. Several compounds are known to act as radiolytic stabilizers and protect against radiolysis. Antioxidant compounds, such as ascorbic acid (AA) and gentisic acid (GA), are commonly known to protect against radiolysis and are mainly described in the literature for radiolabelling biomolecules with β^--emitting radionuclides (e.g., yttrium-90 and luthetium-177). Notwithstanding, these compounds might have a negative impact on copper-based radiopharmaceuticals, given the redox properties of copper. […] To evaluate the applicability of EtOH as a radiolytic scavenger for ^61Cu-based radiopharmaceuticals, a single test with and without EtOH was performed before establishing optimal labelling conditions. […] Compared with the labelling of [^61Cu]Cu-DOTA-NOC without EtOH (Figure 4A), it is evident that there is a significant decrease in the rate of radiolysis using the ethanol-based method (Figure 4B–D). […] Based on these findings, the use of EtOH was implemented in all further labelling formulations to act as a radiolytic stabilizing agent during the labelling reaction.
Figure 4 Representative chromatograms of [^61Cu]Cu-DOTA-NOC, [^61Cu]Cu-DOTA-TOC and [^61Cu]Cu-DOTA-TATE without (A) and with (B–D) using EtOH (maximum 5 vol% EtOH) during the labelling reaction. Two different HPLC methods were used, as described in Table 4. For a more practical comparative analysis between chromatograms, raw data was normalised as percentage of total radioactivity. Percentage of radiolysis is the ratio of radiolysis counts to total counts. TEXT PRINTED IN THE PICTURE: (A) [^61Cu]Cu-DOTA-NOC: Radiolysis: > 15% | (B) [^61Cu]Cu-DOTA-NOC: Radiolysis: < 5% | (C) [^61Cu]Cu-DOTA-TOC: Radiolysis: < 1% | (D) [^61Cu]Cu-DOTA-TATE: Radiolysis: < 1%
RCP was measured by HPLC (Agilent 1200 series HPLC system, Agilent Technologies, Santa Clara, CA, USA) equipped with a GABIStar NaI(Tl) radiometric detector (Raytest Isotopenmessgeraete GmbH, Straubenhardt, Germany) (20 μL sample volume). Two different methods (Table 4) were used, one for [^61Cu]Cu-DOTA-NOC (Method A) and a second to evaluate both [^61Cu]Cu-DOTA-TATE and [^61Cu]Cu-DOTA-TOC (Method B). An ACE 3 C18 150 × 3 mm HPLC column (ACE, Reading, UK) was used in both methods, and the flow was fixed at 0.6 mL/min.

[1] = labelling with EtOH up to 300 μL (maximum 5 vol% EtOH)

Compound | Radiolysis (ratio of radiolysis counts to total counts) [1] | Radiolysis (ratio of radiolysis counts to total counts) (labelling without EtOH)
C[C@@H](O)[C@@H]1NC(=O)[C@H](CCCCN)NC(=O)[C@@H](Cc2c[nH]c3ccccc23)NC(=O)[C@H](Cc2cccc3ccccc23)NC(=O)[C@@H](NC(=O)[C@@H](Cc2ccccc2)NC(=O)CN2CCN(CC(=O)O)CCN(CC(=O)O)CCN(CC(=O)O)CC2)CSSC[C@@H](C(=O)N[C@H](CO)[C@@H](C)O)NC1=O [[^61Cu]Cu-DOTA-NOC, metal not drawn] ({DOTA}-[dF]C[1Nal][dW]KTC[Thr(ol)]; disulfide 2-7 (inferred)) | less than 5% | more than 15%
C[C@@H](O)[C@H](NC(=O)[C@@H]1CSSC[C@H](NC(=O)[C@@H](Cc2ccccc2)NC(=O)CN2CCN(CC(=O)O)CCN(CC(=O)O)CCN(CC(=O)O)CC2)C(=O)N[C@@H](Cc2ccc(O)cc2)C(=O)N[C@H](Cc2c[nH]c3ccccc23)C(=O)N[C@@H](CCCCN)C(=O)N[C@@H]([C@@H](C)O)C(=O)N1)C(=O)O [[^61Cu]Cu-DOTA-TATE, metal not drawn] | less than 1% | –
C[C@@H](O)[C@@H]1NC(=O)[C@H](CCCCN)NC(=O)[C@@H](Cc2c[nH]c3ccccc23)NC(=O)[C@H](Cc2ccc(O)cc2)NC(=O)[C@@H](NC(=O)[C@@H](Cc2ccccc2)NC(=O)CN2CCN(CC(=O)O)CCN(CC(=O)O)CCN(CC(=O)O)CC2)CSSC[C@@H](C(=O)N[C@H](CO)[C@@H](C)O)NC1=O [[^61Cu]Cu-DOTA-TOC, metal not drawn] | less than 1% | –
